# Where two headings read alike, the source gives them in different places.
# Tests used:
# [1] = target: RBD protein (L452R, E484Q)
# [2] = target: RBD protein (K417N, N501Y, E484K)
# [3] = target: RBD protein (L452R, E484Q); remark: listed apart in the source
substance,measurement,setting,value
"MM57 neutralizing monoclonal antibody (Beijing Sino Biological Ltd. Co., article number 40592-MM57)",EC50 (read off the curve),[1],0.2 µg/mL
"MM43 neutralizing monoclonal antibody (Beijing Sino Biological Ltd. Co., article number 40591-MM43)",EC50 (read off the curve),[2],0.7 µg/mL
"R001 neutralizing monoclonal antibody (Beijing Sino Biological Ltd. Co., article number 40592-R001)",EC50 (read off the curve),[3],0.2 µg/mL
